Measurements from US20170190753A1 (LABORATOIRE FRANCAIS DU FRACTIONNEMENT ET DES …, published 2017).
Blank lines part the entries; values can stand above or below the binder they belong to.

Biological target: C3 convertase complex (UniProt P01024 23-1663; P00751 260-764)
Test: cell-based or functional assay
For C3 convertase activity % of the control in this document: test concentration or dose not given here.

C3 convertase complex, sequence (P01024 23-1663, chain 1 of 2): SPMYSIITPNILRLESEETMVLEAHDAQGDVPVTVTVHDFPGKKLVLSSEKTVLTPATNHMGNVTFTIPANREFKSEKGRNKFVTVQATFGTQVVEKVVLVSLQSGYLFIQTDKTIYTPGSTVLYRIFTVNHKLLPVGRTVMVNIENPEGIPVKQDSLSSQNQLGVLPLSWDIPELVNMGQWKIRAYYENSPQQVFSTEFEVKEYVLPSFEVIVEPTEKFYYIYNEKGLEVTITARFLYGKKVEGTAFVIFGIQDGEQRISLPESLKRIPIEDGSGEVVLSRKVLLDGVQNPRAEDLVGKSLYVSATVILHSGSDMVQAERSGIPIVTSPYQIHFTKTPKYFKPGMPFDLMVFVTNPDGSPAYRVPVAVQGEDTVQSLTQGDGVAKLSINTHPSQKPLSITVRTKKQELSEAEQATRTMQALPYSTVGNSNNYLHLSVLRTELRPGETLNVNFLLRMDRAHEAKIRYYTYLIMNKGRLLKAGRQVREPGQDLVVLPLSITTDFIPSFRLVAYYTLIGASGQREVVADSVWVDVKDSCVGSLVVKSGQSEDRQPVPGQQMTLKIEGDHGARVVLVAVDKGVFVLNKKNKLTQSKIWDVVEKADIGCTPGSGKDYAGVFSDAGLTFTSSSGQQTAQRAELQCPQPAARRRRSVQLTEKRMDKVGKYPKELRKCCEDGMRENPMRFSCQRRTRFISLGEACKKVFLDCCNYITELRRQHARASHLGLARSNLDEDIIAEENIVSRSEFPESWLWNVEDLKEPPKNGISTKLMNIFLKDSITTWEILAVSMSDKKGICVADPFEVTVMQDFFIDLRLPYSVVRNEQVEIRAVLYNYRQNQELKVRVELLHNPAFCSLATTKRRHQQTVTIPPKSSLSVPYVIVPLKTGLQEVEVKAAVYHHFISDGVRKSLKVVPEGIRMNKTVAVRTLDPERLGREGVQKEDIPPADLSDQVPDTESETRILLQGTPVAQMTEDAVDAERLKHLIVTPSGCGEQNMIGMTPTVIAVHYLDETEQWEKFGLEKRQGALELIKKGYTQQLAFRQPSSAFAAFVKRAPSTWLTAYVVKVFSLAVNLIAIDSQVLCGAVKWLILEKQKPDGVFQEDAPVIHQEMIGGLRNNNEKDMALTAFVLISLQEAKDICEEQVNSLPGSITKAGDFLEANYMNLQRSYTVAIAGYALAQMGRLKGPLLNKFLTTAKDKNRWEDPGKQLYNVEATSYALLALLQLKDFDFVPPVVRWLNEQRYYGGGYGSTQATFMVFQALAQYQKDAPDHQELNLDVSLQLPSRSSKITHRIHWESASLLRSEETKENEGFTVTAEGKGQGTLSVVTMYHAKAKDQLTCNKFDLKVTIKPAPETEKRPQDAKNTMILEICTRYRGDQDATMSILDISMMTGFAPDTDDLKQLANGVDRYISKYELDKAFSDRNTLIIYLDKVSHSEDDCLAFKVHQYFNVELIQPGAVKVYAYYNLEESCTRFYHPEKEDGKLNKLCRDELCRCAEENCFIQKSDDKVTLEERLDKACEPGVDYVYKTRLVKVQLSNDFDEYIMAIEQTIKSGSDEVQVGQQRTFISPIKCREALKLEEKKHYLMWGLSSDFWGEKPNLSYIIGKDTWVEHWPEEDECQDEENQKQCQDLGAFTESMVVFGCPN
C3 convertase complex, sequence (P00751 260-764, chain 2 of 2): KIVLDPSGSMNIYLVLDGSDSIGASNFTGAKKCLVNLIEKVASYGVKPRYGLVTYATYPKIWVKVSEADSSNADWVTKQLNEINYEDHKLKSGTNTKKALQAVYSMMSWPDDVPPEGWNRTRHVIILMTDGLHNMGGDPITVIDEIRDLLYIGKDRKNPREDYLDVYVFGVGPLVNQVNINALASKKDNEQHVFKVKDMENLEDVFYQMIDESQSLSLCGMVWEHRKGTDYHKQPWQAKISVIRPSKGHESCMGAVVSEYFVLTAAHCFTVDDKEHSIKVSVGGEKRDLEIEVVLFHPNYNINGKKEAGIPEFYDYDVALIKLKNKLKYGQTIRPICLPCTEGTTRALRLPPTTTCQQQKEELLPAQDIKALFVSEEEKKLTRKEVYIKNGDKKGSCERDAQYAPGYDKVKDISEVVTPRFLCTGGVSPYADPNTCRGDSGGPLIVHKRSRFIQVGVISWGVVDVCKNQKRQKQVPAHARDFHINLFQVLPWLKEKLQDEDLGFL

C3 convertase activity % of the control: 30 % of the control
C3 convertase activity IC50: 0.402 µg/mL
B1: pCEP4-1NT8-13CT20 (other)
chain: EDCNELPPRRNTEILTGSWSDQTYPEGTQAIYKCRPGYRSLGNVIMVCRKGEWVALNPLRKCQKRPCGHPGDTPFGTFTLTGGNVFEYGVKAVYTCNEGYQLLGEINYRECDTDGWTNDIPICEVVKCLPVTAPENGKIVSSAMEPDREYHFGQAVRFVCNSGYKIEGDEEMHCSDDGFWSKEKPKCVEISCKSPDVINGSPISQKIIYKENERFQYKCNMGYEYSERGDAVCTESGWRPLPSCEEKSCDNPYIPNGDYSPLRIKHRTGDEITYQCRNGFYPATRGNTAKCTSTGWIPAPRCTLKPCDYPDIKHGGLYHENMRRPYFPVAVGKYYSYYCDEHFETPSGSYWDHIHCTQDGWSPAVPCLRKCYFPYLENGYNQNHGRKFVQGKSIDVACHPGYALPKAQTTVTCMENGWSPTPRCIRVKTCSKSSIDIENGFISESQYTYALKEKAKYQCKLGYVTADGETSGSITCGKDGWSAQPTCIKSGASGCKSSNLIILEEHLKNKKEFDHNSNIRYRCRGKEGWIHTVCINGRWDPEVNCSMAQIQLCPPPPQIPNSHNMTTTLNYRDGEKVSVLCQENYLIQEGEEITCKDGRWQSIPLCVEKIPCSQPPQIEHGTINSSRSSQESYAHGTKLSYTCEGGFRISEENETTCYMGKWSSPPQCEGLPCKSPPEISHGVVAHMSDSYQYGEEVTYKCFEGFGIDGPAIAKCLGEKWSHPPSCIKTDCLSLPSFENAIPMGEKKDVYKAGEQVTYTCATYYKMDGASNVTCINSRWTGRPTCRDTSCVNPPTVQNAYIVSRQMSKYPSGERVRYQCRSPYEMFGDEEVMCLNGNWTEPPQCKDSTGKCGPPPPIDNGDITSFPLSVYAPASSVEYQCQNLYQLEGNKRITCRNGQWSEPPKCLHPCVISREIMENYNIALRWTAKQKLYSRTGESVEFVCKRGYRLSSRSHTLRTTCWDGKLEYPTCAKRGGSGHHHHHH

C3 convertase activity % of the control: 30 % of the control
C3 convertase activity IC50: 0.307 µg/mL
B2: pCEP4-1NT9-12CT20 (other)
chain: EDCNELPPRRNTEILTGSWSDQTYPEGTQAIYKCRPGYRSLGNVIMVCRKGEWVALNPLRKCQKRPCGHPGDTPFGTFTLTGGNVFEYGVKAVYTCNEGYQLLGEINYRECDTDGWTNDIPICEVVKCLPVTAPENGKIVSSAMEPDREYHFGQAVRFVCNSGYKIEGDEEMHCSDDGFWSKEKPKCVEISCKSPDVINGSPISQKIIYKENERFQYKCNMGYEYSERGDAVCTESGWRPLPSCEEKSCDNPYIPNGDYSPLRIKHRTGDEITYQCRNGFYPATRGNTAKCTSTGWIPAPRCTLKPCDYPDIKHGGLYHENMRRPYFPVAVGKYYSYYCDEHFETPSGSYWDHIHCTQDGWSPAVPCLRKCYFPYLENGYNQNHGRKFVQGKSIDVACHPGYALPKAQTTVTCMENGWSPTPRCIRVKTCSKSSIDIENGFISESQYTYALKEKAKYQCKLGYVTADGETSGSITCGKDGWSAQPTCIKSCDIPVFMNARTKNDFTWFKLNDTLDYECHDGYESNTGSTTGSIVCGYNGWSDLPICYEREGASGCGDIPELEHGWAQLSSPPYYYGDSVEFNCSESFTMIGHRSITCIHGVWTQLPQCVAIDKLKKCKSSNLIILEEHLKNKKEFDHNSNIRYRCRGKEGWIHTVCINGRWDPEVNCSMAQIQLCPPPPQIPNSHNMTTTLNYRDGEKVSVLCQENYLIQEGEEITCKDGRWQSIPLCVEKIPCSQPPQIEHGTINSSRSSQESYAHGTKLSYTCEGGFRISEENETTCYMGKWSSPPQCEGLPCKSPPEISHGVVAHMSDSYQYGEEVTYKCFEGFGIDGPAIAKCLGEKWSHPPSCIKTDCLSLPSFENAIPMGEKKDVYKAGEQVTYTCATYYKMDGASNVTCINSRWTGRPTCRDTSCVNPPTVQNAYIVSRQMSKYPSGERVRYQCRSPYEMFGDEEVMCLNGNWTEPPQCKDSTGKCGPPPPIDNGDITSFPLSVYAPASSVEYQCQNLYQLEGNKRITCRNGQWSEPPKCLHPCVISREIMENYNIALRWTAKQKLYSRTGESVEFVCKRGYRLSSRSHTLRTTCWDGKLEYPTCAKRGGSGHHHHHH

C3 convertase activity % of the control: 42 % of the control
C3 convertase activity IC50: 0.228 µg/mL
B3: pCEP4-1NT4-8CT20 (other)
chain: EDCNELPPRRNTEILTGSWSDQTYPEGTQAIYKCRPGYRSLGNVIMVCRKGEWVALNPLRKCQKRPCGHPGDTPFGTFTLTGGNVFEYGVKAVYTCNEGYQLLGEINYRECDTDGWTNDIPICEVVKCLPVTAPENGKIVSSAMEPDREYHFGQAVRFVCNSGYKIEGDEEMHCSDDGFWSKEKPKCVEISCKSPDVINGSPISQKIIYKENERFQYKCNMGYEYSERGDAVCTESGWRPLPSCEEKSGASGCSKSSIDIENGFISESQYTYALKEKAKYQCKLGYVTADGETSGSITCGKDGWSAQPTCIKSCDIPVFMNARTKNDFTWFKLNDTLDYECHDGYESNTGSTTGSIVCGYNGWSDLPICYERECELPKIDVHLVPDRKKDQYKVGEVLKFSCKPGFTIVGPNSVQCYHFGLSPDLPICKEQVQSCGPPPELLNGNVKEKTKEEYGHSEVVEYYCNPRFLMKGPNKIQCVDGEWTTLPVCIVEESTCGDIPELEHGWAQLSSPPYYYGDSVEFNCSESFTMIGHRSITCIHGVWTQLPQCVAIDKLKKCKSSNLIILEEHLKNKKEFDHNSNIRYRCRGKEGWIHTVCINGRWDPEVNCSMAQIQLCPPPPQIPNSHNMTTTLNYRDGEKVSVLCQENYLIQEGEEITCKDGRWQSIPLCVEKIPCSQPPQIEHGTINSSRSSQESYAHGTKLSYTCEGGFRISEENETTCYMGKWSSPPQCEGLPCKSPPEISHGVVAHMSDSYQYGEEVTYKCFEGFGIDGPAIAKCLGEKWSHPPSCIKTDCLSLPSFENAIPMGEKKDVYKAGEQVTYTCATYYKMDGASNVTCINSRWTGRPTCRDTSCVNPPTVQNAYIVSRQMSKYPSGERVRYQCRSPYEMFGDEEVMCLNGNWTEPPQCKDSTGKCGPPPPIDNGDITSFPLSVYAPASSVEYQCQNLYQLEGNKRITCRNGQWSEPPKCLHPCVISREIMENYNIALRWTAKQKLYSRTGESVEFVCKRGYRLSSRSHTLRTTCWDGKLEYPTCAKRGGSGHHHHHH

C3 convertase activity % of the control: 45 % of the control
C3 convertase activity IC50: 0.776 µg/mL
B4: pCEP4-1NT13-14CT20 (other)
chain: EDCNELPPRRNTEILTGSWSDQTYPEGTQAIYKCRPGYRSLGNVIMVCRKGEWVALNPLRKCQKRPCGHPGDTPFGTFTLTGGNVFEYGVKAVYTCNEGYQLLGEINYRECDTDGWTNDIPICEVVKCLPVTAPENGKIVSSAMEPDREYHFGQAVRFVCNSGYKIEGDEEMHCSDDGFWSKEKPKCVEISCKSPDVINGSPISQKIIYKENERFQYKCNMGYEYSERGDAVCTESGWRPLPSCEEKSCDNPYIPNGDYSPLRIKHRTGDEITYQCRNGFYPATRGNTAKCTSTGWIPAPRCTLKPCDYPDIKHGGLYHENMRRPYFPVAVGKYYSYYCDEHFETPSGSYWDHIHCTQDGWSPAVPCLRKCYFPYLENGYNQNHGRKFVQGKSIDVACHPGYALPKAQTTVTCMENGWSPTPRCIRVKTCSKSSIDIENGFISESQYTYALKEKAKYQCKLGYVTADGETSGSITCGKDGWSAQPTCIKSCDIPVFMNARTKNDFTWFKLNDTLDYECHDGYESNTGSTTGSIVCGYNGWSDLPICYERECELPKIDVHLVPDRKKDQYKVGEVLKFSCKPGFTIVGPNSVQCYHFGLSPDLPICKEQVQSCGPPPELLNGNVKEKTKEEYGHSEVVEYYCNPRFLMKGPNKIQCVDGEWTTLPVCIVEESTCGDIPELEHGWAQLSSPPYYYGDSVEFNCSESFTMIGHRSITCIHGVWTQLPQCVAIDKLKKCKSSNLIILEEHLKNKKEFDHNSNIRYRCRGKEGWIHTVCINGRWDPEVNCSMAQIQLGASGCPPPPQIPNSHNMTTTLNYRDGEKVSVLCQENYLIQEGEEITCKDGRWQSIPLCVEKIPCSQPPQIEHGTINSSRSSQESYAHGTKLSYTCEGGFRISEENETTCYMGKWSSPPQCEGLPCKSPPEISHGVVAHMSDSYQYGEEVTYKCFEGFGIDGPAIAKCLGEKWSHPPSCIKTDCLSLPSFENAIPMGEKKDVYKAGEQVTYTCATYYKMDGASNVTCINSRWTGRPTCRDTSCVNPPTVQNAYIVSRQMSKYPSGERVRYQCRSPYEMFGDEEVMCLNGNWTEPPQCKDSTGKCGPPPPIDNGDITSFPLSVYAPASSVEYQCQNLYQLEGNKRITCRNGQWSEPPKCLHPCVISREIMENYNIALRWTAKQKLYSRTGESVEFVCKRGYRLSSRSHTLRTTCWDGKLEYPTCAKRGGSGHHHHHH

C3 convertase activity % of the control: 38 % of the control
C3 convertase activity IC50: 0.244 µg/mL
B5: pCEP4-1NT4-10CT20 (other)
chain: EDCNELPPRRNTEILTGSWSDQTYPEGTQAIYKCRPGYRSLGNVIMVCRKGEWVALNPLRKCQKRPCGHPGDTPFGTFTLTGGNVFEYGVKAVYTCNEGYQLLGEINYRECDTDGWTNDIPICEVVKCLPVTAPENGKIVSSAMEPDREYHFGQAVRFVCNSGYKIEGDEEMHCSDDGFWSKEKPKCVEISCKSPDVINGSPISQKIIYKENERFQYKCNMGYEYSERGDAVCTESGWRPLPSCEEKSGASGCELPKIDVHLVPDRKKDQYKVGEVLKFSCKPGFTIVGPNSVQCYHFGLSPDLPICKEQVQSCGPPPELLNGNVKEKTKEEYGHSEVVEYYCNPRFLMKGPNKIQCVDGEWTTLPVCIVEESTCGDIPELEHGWAQLSSPPYYYGDSVEFNCSESFTMIGHRSITCIHGVWTQLPQCVAIDKLKKCKSSNLIILEEHLKNKKEFDHNSNIRYRCRGKEGWIHTVCINGRWDPEVNCSMAQIQLCPPPPQIPNSHNMTTTLNYRDGEKVSVLCQENYLIQEGEEITCKDGRWQSIPLCVEKIPCSQPPQIEHGTINSSRSSQESYAHGTKLSYTCEGGFRISEENETTCYMGKWSSPPQCEGLPCKSPPEISHGVVAHMSDSYQYGEEVTYKCFEGFGIDGPAIAKCLGEKWSHPPSCIKTDCLSLPSFENAIPMGEKKDVYKAGEQVTYTCATYYKMDGASNVTCINSRWTGRPTCRDTSCVNPPTVQNAYIVSRQMSKYPSGERVRYQCRSPYEMFGDEEVMCLNGNWTEPPQCKDSTGKCGPPPPIDNGDITSFPLSVYAPASSVEYQCQNLYQLEGNKRITCRNGQWSEPPKCLHPCVISREIMENYNIALRWTAKQKLYSRTGESVEFVCKRGYRLSSRSHTLRTTCWDGKLEYPTCAKRGGSGHHHHHH
